# Data: the supplement of paper PMC10567573
# B1: PPFIA4 (parent)
# chain: YAGNLHESGVHGALLALDENFDHN
# Variants of: B1
# Experiment: protein stability index of a GFP-peptide fusion (GPS, HEK-293T) (PSI 1-6); higher = more stable
# Settings: c terminus: a fixed tail appended
# 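Further: lentivirally expressed fusions sorted by FACS into six bins by GFP to DsRed ratio, PSI derived from sequencing read proportions per bin multiplied by bin number.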
row,Variant,protein stability index
1,YAGNLHESEVHGALLALDENFDHN [G9E],3.49
2,YAGNLHESQVHGALLALDENFDHN [G9Q],2.82
3,YAGNLHESDVHGALLALDENFDHN [G9D],3.69
4,YAGNLHESGVHGALLAMDENFDHN [L17M],2.96
5,YAGNLHESGVHGALLAWDENFDHN [L17W],2.4
6,YAGNLHESGVHGALLAGDENFDHN [L17G],3.4
7,YAGNLHESGVHGALLAADENFDHN [L17A],3.43
8,YAGNLHEPGVHGALLALDENFDHN [S8P],2.49
9,YAGNLHEIGVHGALLALDENFDHN [S8I],2.21
10,YAGNQHESGVHGALLALDENFDHN [L5Q],2.94
11,YAGNAHESGVHGALLALDENFDHN [L5A],2.56
12,YAGNPHESGVHGALLALDENFDHN [L5P],2.94
13,YAGNEHESGVHGALLALDENFDHN [L5E],4.34
14,YAGNLHESGVHGALLILDENFDHN [A16I],1.97
15,YAGNLHESGVHGALLVLDENFDHN [A16V],2.31
16,YAGNLHESGVHGSLLALDENFDHN [A13S],2.33
17,YAGNLHESGVHGMLLALDENFDHN [A13M],1.49
18,YAGNLHESGVHGPLLALDENFDHN [A13P],2.96
19,YAGNLHESGVHGYLLALDENFDHN [A13Y],3.02
20,YAGNLHESGVHGGLLALDENFDHN [A13G],2.65
21,YAGNLHESGVHGNLLALDENFDHN [A13N],2.66
22,YAGNLHESGVHGLLLALDENFDHN [A13L],2.06
23,YAGNLHESGVHGWLLALDENFDHN [A13W],3.04
24,YAGNLHESGVHGHLLALDENFDHN [A13H],2.67

row,Variant,protein stability index
1,YAGNLHESGVLGALLALDENFDHN [H11L],1.76
2,YAGNLHESGVFGALLALDENFDHN [H11F],2.49
3,YAGNLHESGVSGALLALDENFDHN [H11S],2.9
4,YAGNLHESGVNGALLALDENFDHN [H11N],2.83
5,YAGNLHESGVHDALLALDENFDHN [G12D],3.74
6,YAGNLHESGVHWALLALDENFDHN [G12W],3.02
7,YAGNLHESGVHYALLALDENFDHN [G12Y],1.7
8,YAGNLHESGVHGALLALDENFDHH [N24H],1.9
9,YAGNLHESGVHGALLALDENFDHG [N24G],2.13
10,YAGNLHESGVHGALLALDENFDHY [N24Y],2.47
11,YAGNLHWSGVHGALLALDENFDHN [E7W],2.91
12,YAGNLHLSGVHGALLALDENFDHN [E7L],2.34
13,YAGNLHNSGVHGALLALDENFDHN [E7N],1.81
14,YAGNLHDSGVHGALLALDENFDHN [E7D],3.14
15,YAGNLHPSGVHGALLALDENFDHN [E7P],1.95
16,YAGNLHESGRHGALLALDENFDHN [V10R],2.79
17,YAGNLHESGGHGALLALDENFDHN [V10G],2.8
18,YAGNLHESGWHGALLALDENFDHN [V10W],2.73
19,YAGNLHESGPHGALLALDENFDHN [V10P],2.94
20,YAGNLHESGEHGALLALDENFDHN [V10E],4.11
21,YAGCLHESGVHGALLALDENFDHN [N4C],2.03
22,YAGGLHESGVHGALLALDENFDHN [N4G],2.65
23,YAGPLHESGVHGALLALDENFDHN [N4P],2.77
24,YAGMLHESGVHGALLALDENFDHN [N4M],2.29

row,Variant,protein stability index
1,YAGNLHESGVHGALLALDENFNHN [D22N],1.99
2,YAGNLHESGVHGALLALDENFIHN [D22I],2.11
3,YAGNLHESGVHGALLALDENFRHN [D22R],1.56
4,YAGNLHESGVHGALLALDENFGHN [D22G],2.4
5,YAGNLHESGVHGALLALDENFYHN [D22Y],2.49
6,YAGNLHESGVHGALLALDEDFDHN [N20D],2.98
7,YAGNLHESGVHGALLALDETFDHN [N20T],2.16
8,YAGNLHESGVHGALLALDESFDHN [N20S],2.58
9,YAGNLHESGVHGALLALDEYFDHN [N20Y],2.24
10,YAGNLHESGVHGALLALDEAFDHN [N20A],2.68
11,YAGNLHESGVHGALLALDMNFDHN [E19M],1.65
12,YAGNLHESGVHGALLALDVNFDHN [E19V],2
13,YAGNLHESGVHGALLALDWNFDHN [E19W],3.17
14,GAGNLHESGVHGALLALDENFDHN [Y1G],5.06
15,LAGNLHESGVHGALLALDENFDHN [Y1L],4.49
16,WAGNLHESGVHGALLALDENFDHN [Y1W],3.77
17,DAGNLHESGVHGALLALDENFDHN [Y1D],4.8
18,YAGNLHESGVHGALLALDENFDWN [H23W],2.07
19,YAGNLHESGVHGALLALDENFDPN [H23P],2.81
20,YAGNLHESGVHGALLALDENFDLN [H23L],2.34
21,YAGNLHESGVHGALLALDENFDMN [H23M],2.19
22,YHGNLHESGVHGALLALDENFDHN [A2H],1.85
23,YAGNLHESGVHGALLALDENHDHN [F21H],3
24,YAQNLHESGVHGALLALDENFDHN [G3Q],3.12

row,Variant,protein stability index
1,YAYNLHESGVHGALLALDENFDHN [G3Y],1.99
2,YAANLHESGVHGALLALDENFDHN [G3A],2.79
3,YAHNLHESGVHGALLALDENFDHN [G3H],2.92
4,YAFNLHESGVHGALLALDENFDHN [G3F],2.29
5,YAINLHESGVHGALLALDENFDHN [G3I],2.81
6,YAPNLHESGVHGALLALDENFDHN [G3P],2.29
7,YAGNLNESGVHGALLALDENFDHN [H6N],2.05
8,YAGNLIESGVHGALLALDENFDHN [H6I],2.23
9,YAGNLTESGVHGALLALDENFDHN [H6T],2.83
10,YAGNLHESGVHGALLALFENFDHN [D18F],1.69
11,YAGNLHESGVHGALLALIENFDHN [D18I],2.2
12,YAGNLHESGVHGATLALDENFDHN [L14T],3.56
13,YAGNLHESGVHGAHLALDENFDHN [L14H],3.8
14,YAGNLHESGVHGACLALDENFDHN [L14C],2.36
15,YAGNLHESGVHGANLALDENFDHN [L14N],3.8
16,YAGNLHESGVHGAPLALDENFDHN [L14P],4.03
17,YAGNLHESGVHGASLALDENFDHN [L14S],3.45
18,YAGNLHESGVHGALCALDENFDHN [L15C],3.06
19,YAGNLHESGVHGALAALDENFDHN [L15A],4.13
20,YAGNLHESGVHGALKALDENFDHN [L15K],3.46
21,YAGNLHESGVHGALEALDENFDHN [L15E],4.23
22,YAGNLHESGVHGALMALDENFDHN [L15M],2.93
